{"source": "paper PMC8093215", "target": "human DNMT1 BAH1 domain (residues 728-900), Y775A (human) (UniProt P26358)", "sequence (P26358 728-900 Y775A)": "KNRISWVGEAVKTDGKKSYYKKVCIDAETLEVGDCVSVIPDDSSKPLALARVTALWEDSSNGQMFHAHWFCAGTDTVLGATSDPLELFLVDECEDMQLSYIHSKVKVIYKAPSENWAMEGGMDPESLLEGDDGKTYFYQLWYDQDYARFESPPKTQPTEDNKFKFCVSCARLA", "assay": "ITC; 1 mM H4K20me peptide titrated over 0.1 mM hDNMT1 BAH1 or BAH2 domain; 25 mM Tris-HCl pH 7.5, 100 mM NaCl, 2 mM DTT; 5 °C; single-site binding mode", "note": "pKd: −log10 of the molar value."}
{"substance": "H4(14-25)K20me3 peptide (from UniProt P62805 15-26)", "values": [{"measurement": "pKd", "result": 3.44}, {"measurement": "stoichiometry N", "result": 1}]}
